The results in this text go back to patent US20150284471A1 (Amgen, published 2015).

The term Kd denotes the concentration at which binding is half-saturated.

Numbering of substitutions follows the chain as printed. Names and notes keep the numbering of the source.

T1: full-length wild type recombinant human LCAT (human, UniProt P04180 25-440)
T1 sequence: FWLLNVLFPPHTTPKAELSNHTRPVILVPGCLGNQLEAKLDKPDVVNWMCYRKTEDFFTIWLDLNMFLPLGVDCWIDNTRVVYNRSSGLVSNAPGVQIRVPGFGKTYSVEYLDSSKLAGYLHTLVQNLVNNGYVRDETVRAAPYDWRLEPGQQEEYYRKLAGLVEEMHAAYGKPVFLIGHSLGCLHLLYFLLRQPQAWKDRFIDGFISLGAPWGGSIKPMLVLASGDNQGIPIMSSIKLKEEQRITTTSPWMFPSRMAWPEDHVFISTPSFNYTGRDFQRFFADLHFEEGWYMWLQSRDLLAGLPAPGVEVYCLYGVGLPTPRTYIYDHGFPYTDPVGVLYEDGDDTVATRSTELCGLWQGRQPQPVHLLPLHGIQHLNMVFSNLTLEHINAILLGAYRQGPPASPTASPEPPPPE

T2: full-length wild type recombinant cynomolgus LCAT (cynomolgus monkey, UniProt Q08758 25-440 (Papio anubis entry))
T2 construct: also called cyno LCAT
T2 chain: T1 sequence with R158H, G338D, H373R, L385Q

T3: full-length wild type recombinant human LCAT protein that carries a His and Flag tag at the C-terminus (human, UniProt P04180 25-440)
T3 sequence: T1 sequence

B1: 27C3 (antibody, human IgG2, lambda, V domains shown)
VH: QVQLQESGPGLVKPSQTLSLTCTVSGASISSGGYNWSWIRQHPGKGLEWIGYIYYSGSTYYNPSLKSRVTISVDTSKNQFSLKLSSVTAADTAVYYCARERGYCSSTSCSRVMDVWGQGTTVTVSS
VL: SSELTQDPAVSVALGQTVRITCQGDSLRSYYASWYQQKPGQAPVLVIYGKNNRPSGIPDRFSGSSSGNTASLTITGAQAEDEADYYCNSRDNIGNHQVFGGGTKLTVLG
notes: Incompletely N-glycosylated at Asn40 (AHo) of CDRH1
B2: 18E5 (antibody, human IgG2, kappa, V domains shown)
VH: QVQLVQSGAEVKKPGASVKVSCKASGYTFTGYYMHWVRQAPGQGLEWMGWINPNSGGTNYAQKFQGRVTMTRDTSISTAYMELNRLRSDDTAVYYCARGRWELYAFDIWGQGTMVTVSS
VL: EIVLTQSPGTLSLSPGERATLSCRASQSVSGSYLTWYQQKPGQAPRLLIYGASSRATGIPDRFSGSGSGTDFTLTISRLEPEDFAMYYCQQYGGSPPFTFGPGTKVDIKR
B3: 25B7 (antibody, V domains shown)
VH: EVQLLESGGGLVQPGGSLRLSCAASGFTFRSYAMNWVRQAPGKGLEWVSTISGSGGSTHYADSVKGRFTISRDNSKNTLYLQLSSLRAEDTAVYYCAKGIAAADYYYYYGMDVWGQGTTVTVSS
VL: SYEVTQPPSVSVSPGQTASITCSGDKLGDKNACWYQQRPGQSPVLVIYQNSKRPSGIPERFSGSNSGNTATLTISGTQAMDEADYYCQAWDSSTVFGGGTRLEVLG
notes: The heavy chain entry ends after CH1 with a tag remnant
B4: 27C3(S42A, S133T, M136I/I112V) (antibody, human IgG2, lambda, V domains shown)
VH: B1 VH with S37A, S110T, M113I
VL: B1 VL with I93V
notes: IgG2 lambda; The mutations are already in the entries
B5: 27C3(S42A, M136I/N107G, I112V) (antibody, human IgG2, lambda, V domains shown)
VH: B1 VH with S37A, M113I
VL: B1 VL with N88G, I93V
notes: as for B4
B6: 27C3(S42A, S131T, V135I, M136I/I112V) (antibody, human IgG2, lambda, V domains shown)
VH: B1 VH with S37A, S108T, V112I, M113I
VL: B1 VL with I93V
notes: as for B4
B7: 27C3(S42A, S133T, M136I/N107G) (antibody, human IgG2, lambda, V domains shown)
VH: B1 VH with S37A, S110T, M113I
VL: B1 VL with N88G
notes: as for B4
B8: 27C3(S42A, S133T, M136I/N107G, I112V) (antibody, human IgG2, lambda, V domains shown)
VH: B1 VH with S37A, S110T, M113I
VL: B1 VL with N88G, I93V
notes: as for B4
B9: 27C3(S42A, S131T, V135I, M136I/N107G, I112V) (antibody, human IgG2, lambda, V domains shown)
VH: B1 VH with S37A, S108T, V112I, M113I
VL: B1 VL with N88G, I93V
notes: as for B4
B10: 27C3(S42A, S131T, M136I/N107G, I112V) (antibody, human IgG2, lambda, V domains shown)
VH: B1 VH with S37A, S108T, M113I
VL: B1 VL with N88G, I93V
notes: as for B4
B11: 27C3(S42A, S131T, M136I/N107G) (antibody, human IgG2, lambda, V domains shown)
VH: B1 VH with S37A, S108T, M113I
VL: B1 VL with N88G
notes: as for B4
B12: 27C3(S42A, S131T, V135I, M136I/N107G) (antibody, human IgG2, lambda, V domains shown)
VH: B1 VH with S37A, S108T, V112I, M113I
VL: B1 VL with N88G
notes: as for B4
B13: 27C3(S42A, S131T, M136I/I112V) (antibody, human IgG2, lambda, V domains shown)
VH: B1 VH with S37A, S108T, M113I
VL: B1 VL with I93V
notes: as for B4

The target of the first assay is T1, full-length wild type recombinant human …. The assay can be described thus: cell-based or functional assay.
As to B1, the “EC50 (read off the curve)” value was roughly 4 mgAb/mL Plasma.

For another assay the target is unchanged. Briefly: Binding Affinity (nM), Table 10; method not restated (BIAcore of Example 3 presumed). In general terms: Surface plasmon resonance follows binding to a sensor surface in real time, without labels.
Take B1: the Kd came to 1.15 nM.

Another assay concerns the target T2, full-length wild type recombinant …. The assay is described as above.
On to B1, for which the Kd came out at 128 nM.

The next assay has as its target T1, full-length wild type recombinant human …. Briefly: BIAcore 3000 SPR, antibody captured on goat anti-human IgG, LCAT as analyte, 1:1 fit.
Method: (§1) Biosensor analysis was conducted at 25° C. in a HBS-EP buffer system (10 mM HEPES pH 7.4, 150 mM NaCl, 3 mM EDTA, 0.005% Surfactant P20) using a Biacore 3000 optical biosensor equipped with a CMS sensor chip. All reagents were kept at 4° C. prior to injection.
(§2) Goat anti-human IgG (30 mg/mL) (abcam) was immobilized (10000 RU) over flow cells 1-4 via standard amine coupling and followed by ethanolamine blocking. Each antibody (150 ng/mL) was captured (−100 RU) on a separate flow cell and analyzed simultaneously in sets of three. Flow cell 1 was used as the reference flow cell.
(§3) The data were fit to a 1:1 binding model (global Rmax) via Scrubber2 software. In some cases the highest concentrations were omitted to provide a better fit to the 1:1 binding model.
Take B1: the Kd stood at 1.15 nM.
As to B2, the Kd came to 1.01 nM.
For B3, the equilibrium dissociation constant (Kd) was found to be 2.24 nM.

In a further assay the target is T2, full-length wild type recombinant …. Described as above.
Method: as §1, §2, §3
In the case of B1, the Kd worked out at 128 nM.
On to B3, for which the dissociation constant Kd came to 1.02 nM.

For the next assay the target is unchanged. The assay can be described thus: BIAcore 3000 SPR, antibody captured on goat anti-human IgG, LCAT as analyte; cyno LCAT.
Method: as §1, §2, §3
As to B3, the Kd worked out at 1.2 nM.

A further assay addresses T1, full-length wild type recombinant human …. Briefly: Binding Affinity (nM), Table 12; method not restated (BIAcore of Example 3 presumed).
B4: the Kd was 0.3 nM.
In the case of B5, the Kd was 1.2 nM.
Regarding B6, the Kd was determined as 3 nM.
For the molecule B7, the Kd amounted to 0.4 nM.
Regarding B8, the Kd amounted to 0.5 nM.
For B9, the Kd was determined as 34 nM.
As to B10, the Kd was found to be 1.3 nM.
As to B11, the dissociation constant (Kd) stood at 2.8 nM.
The same measure, in the same setting: to B12 belongs 2.8 nM.
Same read-out and setting: next, B13: 3 nM.

A further assay concerns the target T2, full-length wild type recombinant …. Described as above.
On to B4, for which the Kd was 88 nM.
On to B5, for which the Kd is 190 nM.
With B6, the Kd was 198 nM.
Regarding B7, the Kd was found to be 62 nM.
As for B8, the Kd was found to be 8 nM.
Regarding B9, the Kd was 88 nM.
Still for that read-out and setting: next, B10: 181 nM; B11: 226 nM.
For B12, the Kd was 226 nM.
Consider B13, for which the Kd amounted to 198 nM.

A further assay deals with T3, full-length wild type recombinant human …. Briefly: cell-based or functional assay.
Consider B2, for which the “LCAT Activity (fold the vehicle control activity)” value came out at 2.5 fold.

The next assay addresses T1, full-length wild type recombinant human …. The assay can be described thus: cell-based or functional assay. This is another data set of the same source.
On to B4, for which the Activity was found to be 46%.
For the molecule B5, the Activity turned out to be 70%.
For the molecule B6, the Activity came to 69%.
Take B7: the Activity came out at 73%.
The same measure, in the same setting: next, B8: 83%; B9: 70%; B10: 89%.
As for B11, the Activity was determined as 65%.
As to B12, the Activity is 70%.
Same read-out and setting: next, B13: 65%.

A further assay has the same target. Briefly: cell-based or functional assay. This is another data set of the same source.
For the molecule B1, the Activity worked out at 100%.
